Source: paper PMC7591906, “pHLIP ICG for delineation of tumors and blood flow during fluorescence-guided surgery” (Scientific Reports, 2020)
Entries after “also recorded” stand apart in the source; their conditions may differ. Read-outs that look alike come from different tables or passages of the source. Peptide text beside a SMILES is read from it. * marks the point of attachment. X1 = CC1(C)C(/C=C/C=C/C=C/C=C2/N(CCCCCC(=O)NCCN3C(=O)CC(*)C3=O)c3ccc4ccccc4c3C2(C)C)=[N+](CCCCS(=O)(=O)[O-])c2ccc3ccccc3c21

Assays:
[1] = 7-day repeat i.v. toxicity in B6D2F1 mice (GLP); format: in vivo; details: 13.6 mg/kg/day i.v. for 7 days, incidence and severity decreasing over time
Method: The purpose of this GLP study performed at MSK was to assess the acute and delayed toxicity of a repeat administration of pHLIP ICG in mice. The pHLIP ICG was administered for 7 consecutive days.
Throughout the study, body weights, clinical signs, clinical pathology (hematology and clinical chemistry), and histopathology were collected.

[2] = Imaging of blood vessels in pigs; format: in vivo; details: i.v. 0.052 + 0.12 + 0.24 mg/kg, Stryker 1688 AIM and SPY-PHI
Method: Pigs (50 kg) received pHLIP ICG dissolved in PBS or PBS containing 5% Ethanol. Three doses of pHLIP ICG were administered (dose level 1 is 0.052 mg/kg of pHLIP ICG, dose level 2 is an additional administration of 0.12 mg/kg of pHLIP ICG and dose level 3 is an additional administration of 0.24 mg/kg of pHLIP ICG). Each dose was injected intravenously in one bolus followed by a saline flush. Endoscopical and exoscopical imaging was performed at the same time and up to 2 hrs after pHLIP ICG administration. Endoscopic imaging was carried out using the Stryker 1688 system with the L11 light source (808 nm excitation) and adjustable gain. […] Images and video were recorded on a Stryker Connected OR Hub device. […] The overlay mode captures an NIR frame and a white light frame and combines the two to allow surgeons to have the best fluorescence reference (green) while still operating. […] The ENV mode contains the white light frame data in a black/white mode and overlays the fluorescence signal in green to provide a hybrid mode that allows a higher signal-to-noise ratio view of the fluorescence image while still retaining enough of a view of the surrounding tissue to allow the surgeon to continue to operate. The SPY-PHI system has three infrared imaging modes: Overlay, Contrast, and CSF (color-segmented fluorescence). […]

[3] = tested on: Salmonella typhimurium strains (TA1535, TA1537, TA98, TA100 and TA102); assay: In vitro bacterial reverse mutation test; format: cell-based; details: up to 5000 µg/plate, with and without S9 mix
Method: The objective of this study performed at CRL was to determine the potential genotoxicity of pHLIP ICG using the bacterial reverse mutation test.
Salmonella typhimurium strains (TA1535, TA1537, TA98, TA100 and TA102) were treated with pHLIP ICG at a range of concentrations up to 5000 µg/plate (the standard limit dose for this assay), in the presence and absence of a supplemented rat liver fraction (S9 mix), using the plate incorporation version of the bacterial reverse mutation test.
Bacteria were incubated with standard positive controls, and the response of the various bacterial strains to these agents confirmed the sensitivity of the test system and the activity of the S9 mix.

[4] = Single-dose and 7-days repeat i.v. toxicity with TK in Beagle dogs (GLP); format: in vivo; details: for AUC(0-t) / C0: 2.16 mg/kg, daily i.v. bolus 2.16 mg/kg
Method: The objectives of this GLP study, performed at CRL, were to determine the potential toxicity of pHLIP ICG, when given by single dose i.v. injection or once daily (i.v. injections) for 7 days in dogs, and to evaluate the potential reversibility of any findings following the single dose injection. In addition, toxicokinetic characteristics of pHLIP ICG were examined.
The following parameters and end points were evaluated in the study: mortality, clinical observations, body weights, food consumption, ophthalmology and electrocardiology assessments, clinical pathology parameters (hematology, coagulation, clinical chemistry, and urinalysis), toxicokinetic parameters, gross necropsy findings, organ weights, and histopathological examinations.

[5] = Cardiovascular telemetry study in conscious Beagle dogs (GLP); format: in vivo; details: male dogs, single i.v. bolus 0.072, 0.36, 1.44 mg/kg, up to 24 h post-dose
Method: The objective of this GLP study performed at CRL was to evaluate the potential cardiovascular effects of pHLIP ICG in instrumented dogs when administered by i.v. bolus injection using a Latin square design.
Each of the four male dogs received a dose of Reference Item (5 % Ethanol in Phosphate buffered saline (PBS), pH of 7.4 ± 0.2) and three dose levels of pHLIP ICG (0.072, 0.36, and 1.44 mg/kg), with a 7-day washout period between each dose. The dose was administered by i.v. bolus injection at a dose volume of 2.5 mL/kg.
The following cardiovascular parameters were evaluated for all animals from 2 hours prior and up to 24 hours post each dose: systemic blood pressures (systolic, diastolic, mean arterial, and pulse pressure), heart rate, body temperature, and electrocardiographic duration/intervals (PR, QRS, QT, and QTc). Qualitative evaluation of the electrocardiographic waveforms was performed twice prior to each dose (at least 30 minutes apart) and at 5, 15, and 30 minutes, 1, 2, 3, 4, 6, 12, and 24 hours post-dose. Additional evaluations consisted of mortality and clinical observations. There were no mortalities or pHLIP ICG related clinical signs throughout the course of the study.

[6] = Pharmacokinetics in mice, single i.v. injection; format: in vivo, B6D2F1 mice; details: single i.v. 12.3 mg/kg
Method: The purpose of this study, performed at MSK, was to determine the pharmacokinetic parameters of pHLIP ICG in 3 female B6D2F1 mice following a single i.v. injection of pHLIP ICG at a dose of 12.3 mg/kg. Blood was collected in EDTA tubes at 5, 15, 30 minutes, and 1, 2, 4, 6, 8, 16, and 24 hours post-injection, followed by centrifugation to separate the plasma, and flash frozen. At time of analysis, samples were thawed, extracted, and analyzed via LC-MS as per the validated protocol using pHLIPIS.

## CC(C)C[C@H](NC(=O)[C@H](Cc1ccc(O)cc1)NC(=O)[C@H](C)NC(=O)[C@H](CCCNC(=N)N)NC(=O)[C@H](Cc1c[nH]c2ccccc12)NC(=O)[C@@H]1CCCN1C(=O)[C@H](CC(N)=O)NC(=O)[C@H](CCC(N)=O)NC(=O)[C@H](CC(=O)O)NC(=O)[C@H](CC(=O)O)NC(=O)[C@H](CSC1CC(=O)N(CCNC(=O)CCCCCN2/C(=C/C=C/C=C/C=C/C3=[N+](CCCCS(=O)(=O)[O-])c4ccc5ccccc5c4C3(C)C)C(C)(C)c3c2ccc2ccccc32)C1=O)NC(=O)[C@H](C)N)C(=O)N[C@@H](CC(=O)O)C(=O)N[C@@H](CC(C)C)C(=O)N[C@@H](CC(C)C)C(=O)N[C@@H](Cc1ccccc1)C(=O)N1CCC[C@H]1C(=O)N[C@H](C(=O)N[C@@H](CC(=O)O)C(=O)N[C@H](C(=O)N[C@@H](CC(C)C)C(=O)N[C@@H](CC(C)C)C(=O)N[C@@H](CC(C)C)C(=O)N[C@@H](CC(=O)O)C(=O)N[C@@H](CC(C)C)C(=O)N[C@@H](CC(C)C)C(=O)N[C@@H](Cc1c[nH]c2ccccc12)C(=O)N[C@@H](C)C(=O)O)[C@@H](C)O)[C@@H](C)O (some centres unmarked) [pHLIP ICG] (H-AC(X1)DDQNPWRAYLDLLFPTDTLLLDLLWA-OH)
[1]
  Toxicity finding: may be associated with germ cell degeneration in males
[2]
  Visibility of illuminated blood vessels: clearly visible at 2 h post-injection
[3]
  Toxicity to the bacteria: non-toxic to the bacteria at the levels tested
[3]; plate incorporation
  Mutagenicity, revertant colonies: did not show any evidence of genotoxic activity; also recorded: negative for the induction of mutagenicity
[4]; 2.16 mg/kg/day i.v. for 7 days, males and females, non-adverse
  Clinical chemistry changes: minimal decreases in cholesterol
[4]; Beagle, dog, in vivo, iv, mean, read-out: AUCTlast, day 1
  AUC(0-t): 65400 ng·h/mL
[4]; Beagle, dog, in vivo, iv, mean, read-out: AUCTlast, day 7
  AUC(0-t): 72300 ng·h/mL
[4]; Beagle, dog, in vivo, iv, mean, read-out: C0, day 1
  C0: 38400 ng/mL
[4]; Beagle, dog, in vivo, iv, mean, read-out: C0, day 7
  C0: 42700 ng/mL
[4]; both sexes, Beagle, dog, in vivo, iv, 2.16 mg/kg/day for 7 days, mean, males and females, read-out: Cmax at NOAEL
  Cmax: 40300 ng/mL
[4]; males and females, 7 days repeated i.v. administration
  NOAEL: above 2.16 mg/kg/day
[4]; single i.v. bolus 0.063, 1.08, 2.16 mg/kg or once daily for 7 days at 2.16 mg/kg/day
  Overall toxicity finding: did not adversely affect the overall health or condition of the animals
[5]
  Cardiovascular effects: no observable effect on systemic blood pressures, heart rate, body temperature, electrocardiographic intervals; also recorded: no effect on systemic blood pressures, heart rate, body temperature, electrocardiographic intervals, or qualitative ECG parameters
[6]; female, B6D2F1, mouse, plasma, iv, mean, read-out: Clearance (Cl) (converted)
  clearance: 0.159 mL/min/kg
[6]; female, B6D2F1, mouse, plasma, iv, mean, read-out: Elimination half-time (T1/2) (converted)
  half-life: 3.9 h
[6]; female, B6D2F1, mouse, plasma, iv, mean, read-out: Volume of distribution (Vz)
  Vd: 0.0535 L/kg
[6]; LC-MS
  Systemic exposure quantifiable up to: up to 16 hours
